Assay results taken from patent US20210284729A1.
Values joined by “and” are separate entries in the source; they are usually repeats but may differ in a detail not shown here. Equal entries are not always repeated.

Target: 4-1BB (CD137) on T cells (human) (UniProt Q07011)
Assay: cell-based or functional assay

Chain of 4-1BB (CD137) on T cells (human) (Q07011 24-255): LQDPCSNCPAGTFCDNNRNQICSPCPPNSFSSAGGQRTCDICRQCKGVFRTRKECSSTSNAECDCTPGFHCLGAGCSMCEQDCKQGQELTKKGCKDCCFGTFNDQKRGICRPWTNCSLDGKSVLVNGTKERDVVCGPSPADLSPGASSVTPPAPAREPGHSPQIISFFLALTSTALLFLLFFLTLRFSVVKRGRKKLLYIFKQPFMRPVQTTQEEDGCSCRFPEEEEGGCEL

IFN-gamma secretion by T cells (ELISA, 24 h): > 10 fold
T cell expansion (T cell number at day 6 to day 0): 2 fold and 3 fold
TNF-alpha secretion by T cells (ELISA, 24 h): < 8 fold
expansion of autologous AML patient T cells after 96 h of co-culture: 3 fold
Substance: co-stimulatory 4-1BB ligand (CD137L) expressed on the surface of gene-modified hMSCs (SCP-1) (from UniProt P41273 1-254)
